Results published in EP4640700A1 (Harbour Biomed (Shanghai) Co., Ltd, dated 2025).

Columns and labels:
human B7H4 [1] = target: T1, human B7H4 (human, UniProt Q7Z7D3 25-282); test: cell-based or functional assay
T1 sequence (looked up): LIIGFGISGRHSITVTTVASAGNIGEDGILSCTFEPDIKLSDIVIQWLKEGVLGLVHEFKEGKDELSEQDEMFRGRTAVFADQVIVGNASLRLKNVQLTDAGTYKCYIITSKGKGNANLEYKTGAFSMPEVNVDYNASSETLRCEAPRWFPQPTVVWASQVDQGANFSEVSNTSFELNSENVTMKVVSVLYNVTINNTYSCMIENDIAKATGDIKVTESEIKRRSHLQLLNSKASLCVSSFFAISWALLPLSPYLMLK

human B7H4 [2] = target: T1, human B7H4; test: flow cytometry (FACS) on SK-BR-3 cells with high B7H4 expression
PSMA = PSMA (UniProt Q04609 1-750); test: cell-based or functional assay
human ROR1 = human ROR1 (human, UniProt Q01973 30-937); test: cell-based or functional assay
BCMA = target: T2, BCMA (UniProt Q02223 1-184); test: cell-based or functional assay
T2 sequence (looked up): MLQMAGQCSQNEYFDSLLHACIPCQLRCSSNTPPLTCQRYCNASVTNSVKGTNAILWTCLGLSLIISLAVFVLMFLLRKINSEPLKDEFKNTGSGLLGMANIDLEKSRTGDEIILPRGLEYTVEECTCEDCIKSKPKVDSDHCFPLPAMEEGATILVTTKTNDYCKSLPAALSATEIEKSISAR

human serum albumin = target: T3, human serum albumin (human, UniProt P02768 25-609); test: binding to human serum albumin, Fig. 19; method not described
T3 construct: Bought reagent; also called HSA
T3 sequence (P02768 25-609 limits assumed): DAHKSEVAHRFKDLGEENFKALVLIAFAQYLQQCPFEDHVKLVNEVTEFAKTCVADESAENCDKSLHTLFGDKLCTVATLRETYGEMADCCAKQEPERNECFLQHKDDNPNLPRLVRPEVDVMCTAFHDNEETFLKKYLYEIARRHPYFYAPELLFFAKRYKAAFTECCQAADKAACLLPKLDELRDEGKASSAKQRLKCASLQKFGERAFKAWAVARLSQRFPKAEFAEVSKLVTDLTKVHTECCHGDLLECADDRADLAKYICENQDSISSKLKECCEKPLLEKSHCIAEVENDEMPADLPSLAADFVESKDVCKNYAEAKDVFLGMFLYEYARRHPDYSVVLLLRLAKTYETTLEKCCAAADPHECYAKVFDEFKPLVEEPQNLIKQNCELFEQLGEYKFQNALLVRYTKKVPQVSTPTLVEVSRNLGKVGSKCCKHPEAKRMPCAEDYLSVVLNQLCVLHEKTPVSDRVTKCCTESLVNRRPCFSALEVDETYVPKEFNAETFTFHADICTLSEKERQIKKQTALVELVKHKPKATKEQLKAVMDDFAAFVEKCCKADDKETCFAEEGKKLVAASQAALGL

Chain of PSMA (Q04609 whole entry): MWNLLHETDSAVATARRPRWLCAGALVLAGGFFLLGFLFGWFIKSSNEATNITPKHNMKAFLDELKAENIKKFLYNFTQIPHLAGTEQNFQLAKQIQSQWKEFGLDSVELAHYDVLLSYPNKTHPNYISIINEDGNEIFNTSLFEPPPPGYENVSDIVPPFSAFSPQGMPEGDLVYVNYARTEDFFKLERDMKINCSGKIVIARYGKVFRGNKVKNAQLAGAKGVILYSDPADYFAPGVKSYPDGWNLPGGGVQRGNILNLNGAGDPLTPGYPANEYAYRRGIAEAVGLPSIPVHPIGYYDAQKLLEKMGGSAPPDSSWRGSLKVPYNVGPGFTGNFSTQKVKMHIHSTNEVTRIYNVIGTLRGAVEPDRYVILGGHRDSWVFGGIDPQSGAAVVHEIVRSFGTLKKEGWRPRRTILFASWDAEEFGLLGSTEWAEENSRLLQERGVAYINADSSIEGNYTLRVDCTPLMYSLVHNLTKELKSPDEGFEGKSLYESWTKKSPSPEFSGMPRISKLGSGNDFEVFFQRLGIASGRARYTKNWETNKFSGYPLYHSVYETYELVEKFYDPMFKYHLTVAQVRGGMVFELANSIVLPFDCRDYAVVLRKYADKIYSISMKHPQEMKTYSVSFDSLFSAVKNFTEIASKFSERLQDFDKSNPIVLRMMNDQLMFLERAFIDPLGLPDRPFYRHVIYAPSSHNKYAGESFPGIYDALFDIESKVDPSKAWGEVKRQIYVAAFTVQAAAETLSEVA
Chain of human ROR1 (Q01973 30-937): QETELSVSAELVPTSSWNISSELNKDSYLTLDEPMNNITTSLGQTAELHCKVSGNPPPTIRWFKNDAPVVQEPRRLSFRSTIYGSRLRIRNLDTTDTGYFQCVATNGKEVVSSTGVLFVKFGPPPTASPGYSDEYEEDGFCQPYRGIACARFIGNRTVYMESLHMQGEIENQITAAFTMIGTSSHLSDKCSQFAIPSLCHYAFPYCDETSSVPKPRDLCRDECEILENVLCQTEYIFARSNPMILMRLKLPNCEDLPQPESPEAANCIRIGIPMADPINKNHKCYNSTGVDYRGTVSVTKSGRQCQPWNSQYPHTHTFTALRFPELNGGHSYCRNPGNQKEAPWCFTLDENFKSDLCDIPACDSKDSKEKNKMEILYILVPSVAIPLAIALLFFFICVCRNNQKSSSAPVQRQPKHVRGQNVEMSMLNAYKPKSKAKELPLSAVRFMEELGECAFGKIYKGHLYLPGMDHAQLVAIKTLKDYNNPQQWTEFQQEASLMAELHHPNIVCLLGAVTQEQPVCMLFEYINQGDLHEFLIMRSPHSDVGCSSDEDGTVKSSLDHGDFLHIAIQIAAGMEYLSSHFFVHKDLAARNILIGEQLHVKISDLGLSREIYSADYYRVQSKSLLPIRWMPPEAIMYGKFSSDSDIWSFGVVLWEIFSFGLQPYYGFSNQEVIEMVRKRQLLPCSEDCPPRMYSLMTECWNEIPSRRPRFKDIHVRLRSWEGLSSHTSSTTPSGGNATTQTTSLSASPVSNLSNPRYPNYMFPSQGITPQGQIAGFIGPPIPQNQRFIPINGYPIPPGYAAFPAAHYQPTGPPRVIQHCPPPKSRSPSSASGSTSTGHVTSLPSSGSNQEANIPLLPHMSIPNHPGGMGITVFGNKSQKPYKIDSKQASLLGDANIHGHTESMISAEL

B1: PR000317 (bispecific antibody)
chain 1: EVQLVQSGAEVKKPGASVKVSCKASGYTFTSYWIGWVRQAPGQGLEWIGDIYPGGGYTNYNEKFKGRVTITRDTSTSTAYLELSSLRSEDTAVYYCARLAGSSYRGAMDSWGQGTLVTVSSASTKGPSVFPLAPSSKSTSGGTAALGCLVKDYFPEPVTVSWNSGALTSGVHTFPAVLQSSGLYSLSSVVTVPSSSLGTQTYICNVNHKPSNTKVDKKVEPKSC
chain 2: DIQMTQSPSSLSASVGDRVTITCKASQGFNKYVAWYQQKPGKAPKLLIYYTSTLQPGVPSRFSGSGSGRDYTLTISSLQPEDFATYYCLQYGDLLYAFGQGTKVEIKRTVAAPSVFIFPPSDEQLKSGTASVVCLLNNFYPREAKVQWKVDNALQSGNSQESVTEQDSKDSTYSLSSTLTLSKADYEKHKVYACEVTHQGLSSPVTKSFNRGECEVQLVESGGGLVQPKGSLKLSCAASGFTFNTYAMNWVRQAPGKGLEWVARIRSKYNNYATYYADSVKDRFTISRDDSQSILYLQMNNLKTEDTAMYYCVRHGNFGNSYVSWFAYWGQGTLVTVSAASTKGPSVFPLAPSSKSTSGGTAALGCLVKDYFPEPVTVSWNSGALTSGVHTFPAVLQSSGLYSLSSVVTVPSSSLGTQTYICNVNHKPSNTKVDKKVEPKSC
light: QAVVTQESALTTSPGETVTLTCRSSTGAVTTSNYANWVQEKPDHLFTGLIGGTNKRAPGVPARFSGSLIGDKAALTITGAQTEDEAIYFCALWYSNLWVFGGGTKLTVLGQPKAAPSVTLFPPSSEELQANKATLVCLISDFYPGAVTVAWKADSSPVKAGVETTTPSKQSNNKYAASSYLSLTPEQWKSHRSYSCQVTHEGSTVEKTVAPTECS
notes: Three-chain Fab-Fab without Fc; N-terminal Fab-A from PR000157 (anti-B7H4), C-terminal Fab-B from PR000260 (anti-CD3 SP34); also called Anti-B7H4xCD3 1D11-SP34 Fab-Fab; B7H4xCD3 "κ/λ" Fab-Fab antibody
For B1, the “Cell killing EC50” value (human B7H4 [1]) was 0.0018 nM, the “Maximum killing rate (%)” value (human B7H4 [1]) was 33.9% and the EC50 (human B7H4 [2]) was 22 nM.

B2: PR001197 (bispecific antibody)
chain 1: QVQLVESGGGLVKPGESLRLSCAASGFTFSDYYMYWVRQAPGKGLEWVAIISDGGYYTYYSDIIKGRFTISRDNAKNSLYLQMNSLKAEDTAVYYCARGFPLLRHGAMDYWGQGTLVTVSSASTKGPSVFPLAPSSKSTSGGTAALGCLVKDYFPEPVTVSWNSGALTSGVHTFPAVLQSSGLYSLSSVVTVPSSSLGTQTYICNVNHKPSNTKVDKKVEPKSC
chain 2: DIQMTQSPSSLSASVGDRVTITCKASQNVDTNVAWYQQKPGQAPKSLIYSASYRYSDVPSRFSGSASGTDFTLTISSVQSEDFATYYCQQYDSYPYTFGGGTKLEIKRTVAAPSVFIFPPSDEQLKSGTASVVCLLNNFYPREAKVQWKVDNALQSGNSQESVTEQDSKDSTYSLSSTLTLSKADYEKHKVYACEVTHQGLSSPVTKSFNRGECEVQLVESGGGLVQPGGSLKLSCAASGFTFNTYAMNWVRQASGKGLEWVGRIRSKYNNYATYYADSVKDRFTISRDDSKSTLYLQMNSLKTEDTAVYYCVRHGNFGNSYVSWFAYWGQGTLVTVSSASTKGPSVFPLAPSSKSTSGGTAALGCLVKDYFPEPVTVSWNSGALTSGVHTFPAVLQSSGLYSLSSVVTVPSSSLGTQTYICNVNHKPSNTKVDKKVEPKSC
light: QAVVTQEPSLTVSPGGTVTLTCRSSTGAVTTSNYANWVQQKPGQAPRGLIGGTNKRAPWTPARFSGSLLGDKAALTLLGAQPEDEAEYFCALWYSNLWVFGGGTKLTVLGQPKAAPSVTLFPPSSEELQANKATLVCLISDFYPGAVTVAWKADSSPVKAGVETTTPSKQSNNKYAASSYLSLTPEQWKSHRSYSCQVTHEGSTVEKTVAPTECS
With B2 the “Cell killing EC50” value (PSMA) was 0.143 nM and the “Maximum killing rate (%)” value (PSMA) was 52.4%.

B3: PR001200 (bispecific antibody)
chain 1: EVQLVESGGGLVQPGRSLRLSCTASGSDINDYPITWVRQAPGQGLEWIGFINSGGSTWYASWVKGRFTISRDDSKSIAYLQMNSLKTEDTAVYYCARGYSTYYRDFNIWGQGTLVTVSSASTKGPSVFPLAPSSKSTSGGTAALGCLVKDYFPEPVTVSWNSGALTSGVHTFPAVLQSSGLYSLSSVVTVPSSSLGTQTYICNVNHKPSNTKVDKKVEPKSC
chain 2: DIQMTQSPSSLSASVGDRVTINCQASQSIDSNLAWFQQKPGQPPKLLIYRASNLASGVPDRFSGSGSGTDFTLTISSLEAEDVATYYCLGGVGAVSYRTSFGGGTKVEIKRTVAAPSVFIFPPSDEQLKSGTASVVCLLNNFYPREAKVQWKVDNALQSGNSQESVTEQDSKDSTYSLSSTLTLSKADYEKHKVYACEVTHQGLSSPVTKSFNRGECEVQLVESGGGLVQPGGSLKLSCAASGFTFNTYAMNWVRQASGKGLEWVGRIRSKYNNYATYYADSVKDRFTISRDDSKSTLYLQMNSLKTEDTAVYYCVRHGNFGNSYVSWFAYWGQGTLVTVSSASTKGPSVFPLAPSSKSTSGGTAALGCLVKDYFPEPVTVSWNSGALTSGVHTFPAVLQSSGLYSLSSVVTVPSSSLGTQTYICNVNHKPSNTKVDKKVEPKSC
light: B2 light
For B3, the “Cell killing EC50” value (human ROR1) was 1.16 nM and the “Maximum killing rate (%)” value (human ROR1) was 54.8%.

B4: PR001198 (bispecific antibody)
chain 1: QVQLVQSGAEVKKPGSSVKVSCKASGGTFSNYWMHWVRQAPGQGLEWMGATYRGHSDTYYNQKFKGRVTITADKSTSTAYMELSSLRSEDTAVYYCARGAIYDGYDVLDNWGQGTLVTVSSASTKGPSVFPLAPSSKSTSGGTAALGCLVKDYFPEPVTVSWNSGALTSGVHTFPAVLQSSGLYSLSSVVTVPSSSLGTQTYICNVNHKPSNTKVDKKVEPKSC
chain 2: not shown
light: B2 light
In the case of B4, the “Cell killing EC50” value (BCMA) is reported as 0.0178 nM and the “Maximum killing rate (%)” value (BCMA) is reported as 61.3%.

B5: PR001325 (bispecific antibody)
chain 1: B1 chain 1
chain 2: DIQMTQSPSSLSASVGDRVTITCKASQGFNKYVAWYQQKPGKAPKLLIYYTSTLQPGVPSRFSGSGSGRDYTLTISSLQPEDFATYYCLQYGDLLYAFGQGTKVEIKRTVAAPSVFIFPPSDEQLKSGTASVVCLLNNFYPREAKVQWKVDNALQSGNSQESVTEQDSKDSTYSLSSTLTLSKADYEKHKVYACEVTHQGLSSPVTKSFNRGECEVQLVESGGGLVQPGGSLKLSCAASGFTFNTYAMNWVRQASGKGLEWVGRIRSKYNNYATYYADSVKDRFTISRDDSKSTLYLQMNSLKTEDTAVYYCVRHGNFGNSYVSWFAYWGQGTLVTVSSASTKGPSVFPLAPSSKSTSGGTAALGCLVKDYFPEPVTVSWNSGALTSGVHTFPAVLQSSGLYSLSSVVTVPSSSLGTQTYICNVNHKPSNTKVDKKVEPKSCGGGGSGGGGSEVQLLESGGGLVQPGGSLRLSCAASGFTFRSFGMSWVRQAPGKGPEWVSSISGSGSDTLYADSVKGRFTISRDNSKNTLYLQMNSLRPEDTAVYYCTIGGSLSRSSQGTLVTVSS
light: B2 light
notes: no Fc; also called anti-B7H4xCD3 1D11C2-hzSP34_PR512 Fab-Fab-(G4S)2-Alb23; B7H4xCD3xALB trispecific antibody
B5: binds (human serum albumin).

B6: PR000929 (VHH)
VHH: EVQLLESGGGLVQPGGSLRLSCAASGFTFRSFGMSWVRQAPGKGPEWVSSISGSGSDTLYADSVKGRFTISRDNSKNTLYLQMNSLRPEDTAVYYCTIGGSLSRSSQGTLVTVSS
notes: Humanized single-domain antibody, no Fc; also called anti-HSA Alb23-his; single-domain antibody Alb23
B6: binds (human serum albumin).
